Assay results as given in patent US10138280B2, “Polypeptides targeting glycosylated MUC2 proteins, methods of synthesis, their nucleic acids and uses thereof” (INSTITUT PASTEUR, priority 2011, dated 2018).

Key:
rabbit ileal mucus = experiment: Mucus staining on fixed tissues, rabbit ileum; conditions: fixed tissue, 1 μg/mL
Method: FIGS. 8A-8D. (FIG. 8A) Cell toxicity of Cy5-MUB70 tested on HT-29-MTX and Hela epithelial cells. Cell survival was assessed using Sytoxgreen dye on cultures exposed to 1 μg/mL Cy5-MUB70 from 0 to 10 h, as indicated. NS indicates P>0.05 (Student's T-test). (FIG. 8B) Rabbit colonic and ileal mucus staining on fixed tissues (PFA 4%), using Cy5-MUB70 (1 μg/mL) (blue). Actin is stained in red (Phall.-RRX). Bar is 50 μm. (FIG. 8C) Human ex vivo colon sample was incubated for 2 h with 1 μg/mL Cy5-MUB70 in a serum-free media. Resulting fluorescent staining was assessed using a two-photons microscope (see Methods). Z-projection, performed using ImageJ software, allows 3D localization of Cy5-MUB70 fluorescence signal. Bar is 100 μm. Colon scheme: firmly (f) and loosely (I) attached colonic mucus layers are represented at the surface of the epithelium (e). (FIG. 8D) Kinetics of colonic mucus with Cy5-MUB70. […] Human tissue autofluorescence is detected in the same red channel as Cy5.
FIGS. 11A-11C. Mucus staining using Cy5-MUB70 on fixed tissues. (FIG. 11A) Guinea pig colon, (FIG. 11B) rabbit ileum and (FIG. 11C) mouse colon were fixed in PFA 4%. Immunofluorescent staining was performed using Cy5-MUB70 (1 μg/mL) (blue). Actin is stained in red (Phall.-RRX), Muc2 is stained in green (α-Muc2). Observations were performed using a confocal microscope. Bar is 50 μm. […]

guinea pig colonic mucus = experiment: Mucus staining on fixed tissues, guinea pig colon; conditions: fixed tissue, 1 μg/mL
Method: FIGS. 11A-11C. Mucus staining using Cy5-MUB70 on fixed tissues. (FIG. 11A) Guinea pig colon, (FIG. 11B) rabbit ileum and (FIG. 11C) mouse colon were fixed in PFA 4%. Immunofluorescent staining was performed using Cy5-MUB70 (1 μg/mL) (blue). Actin is stained in red (Phall.-RRX), Muc2 is stained in green (α-Muc2). Observations were performed using a confocal microscope. Bar is 50 μm.
(§1) Ex vivo human colon samples were obtained from Dr. E. Labruyère (Institut Pasteur) and tissue processing was performed as described previously and stored in serum free RMPI media (surgical procedure is described herein). Human mucinous carcinoma formamide fixed samples were obtained from Dr. T. Lazure (Hôpitaux Universitaires Paris-Sud, Kremlin-Bicêtre) and Pr. I. Sobhani (Hôpital Henri Mondor, Créteil). Rabbit colon and ileum samples were collected on naïve New Zealand white rabbits weighting 2.5-3 kg and fixed in PFA 3%. Same procedure was applied on intestine samples collected on guinea pigs (Charles River) and C57/B6 mice (Janvier).
Following PFA 4% or Carnoy fixation, as indicated, samples were washed in PBS, incubated at 4° C. in PBS containing 12% sucrose for 90 min, then in PBS with 18% sucrose overnight, and frozen in OCT (Sakura) on dry ice. 7 μm sections were obtained using a cryostat CM-3050 (Leica). […]

[1] = tested on: neutrophiles (white blood cells) in rabbit ileum sub-mucosa; experiment: Staining of neutrophiles in rabbit ileum sub-mucosa; conditions: PFA 4% fixed rabbit ileum; colocalized with α-elastase (PMN) signal
Method: FIG. 13. Staining of individual neutrophiles (white blood cells) in rabbit ileum sub-mucosa. Cy5-MUB70 was incubated on PFA 4% fixed tissues. Signal was colocalized with an α-elastase (PMN) signal. (Primary antibody is α-elastase (PMN) 1:400 and secondary antibody is anti-mouse GFP 1:400, MUBCys5 1:400, Phalloidin-RRX 1:400). […] In particular, granules staining is achieved.

[2] = molecular target: T1, human colonic mucus and goblet cells (Homo sapiens, UniProt Q02817); experiment: Fluorescent staining of healthy human colon, formol fixed, paraffin embedded samples
T1 construct: Segments of human colon (ascending, descending and sigmoid colon) were obtained from fully informed patients undergoing surgery; from tissue; host or cells: healthy human colon segments (live explants, mucus collected from them, Carnoy- or formol-fixed sections)
Method: FIG. 22. Schematic description of the Cy5-MUB40-1, Cy5-MUB40-2, Cy5-MUB40-3, Cy5-MUB40-4 peptides (SEQ ID NOS 62 to 65). Fluorescent staining of human colonic mucus was performed by the addition of 1 μg/mL of the corresponding Cy5-conjugated peptides with Phalloidin-RRX (1:100) on formol fixed, paraffin embedded samples. Image acquisition was performed using a fluorescent confocal microscope (see Methods).
FIG. 23 Comparative staining analysis of human colonic goblet cells using Cy5-MUB70 and Cy5-MUB40-1. Fluorescent staining of human colonic mucus was performed by the addition of 1 μg/mL of the corresponding Cy5-conjugated peptides with Phalloidin-RRX (1:100) on formol fixed, paraffin embedded samples. Image acquisition was performed using a fluorescent confocal microscope (see Methods).
(§2) FIGS. 24A-24B. Comparative human colonic mucus staining using MUB70-Cy5 on healthy tissues and mucinous carcinomas (Coic et al, JBC, 2012 (41)). Fluorescent staining of human colonic mucus was performed by the addition of 1 μg/mL of the corresponding Cy5-conjugated peptides with Phalloidin-RRX (1:100) on formol fixed, paraffin embedded samples. Image acquisition was performed using a fluorescent confocal microscope (see Methods).
As colonic mucinous carcinomas are characterized by abnormal overproduction of Muc2 in the colon mucosa (40), the inventors have hypothesized that Cy5-MUB70 could be used as a novel fluorescent marker for the diagnosis of this pathology. […] As shown previously on a healthy colon (FIG. 3B), the luminal mucus secreted fraction is detected by Cy5-MUB70 (FIG. 24A, top panel). […] This observation might be the consequence of a higher level of mucus compaction, resulting in a lower accessibility for MUB70 to bind Muc2. […] Cy5-MUB70 has been validated as a potent innovative diagnostic tool for colonic mucinous carcinoma detection and might be optimized with alternative markers (e.g. biotin) for practical clinical applications.

[3] = molecular target: T2, mucus of human colonic mucinous carcinomas (Muc2) (Homo sapiens, UniProt Q02817); experiment: Fluorescent staining of human colonic mucinous carcinoma samples
T2 construct: five different samples collected from patients diagnosed with colonic mucinous carcinomas; from tissue; host or cells: human colonic mucinous carcinoma samples, fixed, paraffin embedded
Method: as §2
as §1, with “Same procedure was applied on intestine samples collected on guinea pigs (Charles River) and C57/B6 mice (Janvier).” left out
As colonic mucinous carcinomas are characterized by abnormal overproduction of Muc2 in the colon mucosa (40), the inventors have hypothesized that Cy5-MUB70 could be used as a novel fluorescent marker for the diagnosis of this pathology. […] As shown previously on a healthy colon (FIG. 3B), the luminal mucus secreted fraction is detected by Cy5-MUB70 (FIG. 24A, top panel). […]

B1: Cy5-MUB70: Cy5-labelled MUB70 polypeptide, labelled via Cy5 maleimide on N-terminal cysteine (conjugate)
peptide: CVHVQYIDGETDQMLRQDDLDGYTDETIPYSTAEGIKKFEGDGYELFKDNFPAGEKFDNDDTNDQFYTVIF
B1 was tested, and the ileal mucus staining (rabbit ileal mucus) was “negative results”, the colonic mucus staining (guinea pig colonic mucus) was “confirmed” and the “neutrophile staining in tissue” value [1] was “binding specifically a neutrophile component”. The “mucosal staining in healthy colon tissues” value ([2]; colonic mucosa of healthy colon tissues from the same patients) was “no mucosal staining was observed”, the “luminal mucus secreted fraction staining in healthy colon” value ([2]; healthy colon, fixed) was “detected” and the goblet cells binding ([2]; human colonic goblet cells, fixed samples, 1 μg/mL) was “not recognized”. For the same molecule, the “staining of colonic mucinous carcinoma samples” value ([3]; five samples from patients, 1 μg/mL) was “specific staining was observed within the mucus accumulation areas” and the “colocalization with Muc2 in colonic mucinous carcinomas” value ([3]; mucus accumulation within the colonic mucosa, associated with tumor cells) was “colocalizes with the presence of Muc2”.
